Data on one molecule can be found in paper PMC5494197, “Deregulation of mitochondrial F1FO-ATP synthase via OSCP in Alzheimer’s disease” (Nature Communications, 2016).

This assay concerns the target T1, Aβ1–42 peptide (UniProt P05067 672-713).
T1 construct: amyloid beta 1-42, cut product of the amyloid beta precursor protein (APP); For neurons and isolated mitochondria the peptide was prepared as oligomeric Aβ (HFIP film, DMSO, HAM'S F-12, 4 °C for 24 h); for the pull-down the methods say only 'Aβ peptide'; also called amyloid beta; oligomeric Aβ1–42; source: synthetic peptide, bought: GenicBio
As to the kind of experiment: pull-down; GST-tagged OSCP on glutathione agarose as bait, incubated overnight at 4 °C with Aβ peptide; immunoblotting or coomassie staining. As to conditions: both partners purified. On the technique in general: A western blot detects proteins with antibodies after separation by electrophoresis.

B1: GST-tagged OSCP (oligomycin sensitivity conferring protein), wild type (natural protein, human, UniProt P48047 24-213, looked up)
chain: FAKLVRPPVQVYGIEGRYATALYSAASKQNKLEQVEKELLRVAQILKEPKVAASVLNPYVKRSIKVKSLNDITAKERFSPLTTNLINLLAENGRLSNTQGVVSAFSTMMSVHRGEVPCTVTSASPLEEATLSELKTVLKSFLSQGQVLKLEAKTDPSILGGMIVRIGEKYVDMSVKTKIQKLGRAMREIV
notes: oligomycin sensitivity conferring protein (OSCP) subunit of mitochondrial F1FO-ATP synthase, human cDNA (Gene Name ATP5O, NCBI Gene ID 539) in pGEX-4t-1; it may tell the limits of the construct; also called GST-OSCP; wild-type OSCP
Regarding B1, the binding result was “binds”.
